Measured values taken from patent US20250282880A1 (NUMAB THERAPEUTICS, published 2025).
Substitutions are numbered along the chain they refer to. In names and notes the source's numbering stands. Where two headings read alike, the source gives them in different places. Blank lines part the entries; values can stand above or below the binder they belong to.

What was measured:
cynomolgus IL-4R-Fc [1] = target: T1, cynomolgus IL-4R-Fc (cynomolgus monkey (Macaca fascicularis), UniProt A0A2K5V580 33-239); test: SPR, capture setup: cynomolgus IL-4R-Fc captured, scFv as analyte
T1 construct: also called cynomolgus IL-4R (capture setup); not shown: Fc part

Biotinylated IL-4R [2] = target: T2, Biotinylated IL-4R (human, UniProt P24394 26-232, limits assumed, biotinylated); test: competitive ELISA: IL-4 coated, biotinylated IL-4R preincubated with scFv
T2 construct: also called human IL-4R; hIL-4R
Text: (§1) Bound biotinylated IL-4R was then detected using streptavidin-HRP.

IL-4R on HEK-Blue cells [3] = target: T3, IL-4R on HEK-Blue cells (human, UniProt P24394 26-825); test: cell-based or functional assay
Human IL-4R-Fc [4] = target: T4, Human IL-4R-Fc (human, UniProt P24394 26-232); test: SPR (Biacore T200), human IL-4R-Fc captured, scFv as analyte 0.12 to 90 nM, 1:1 model
T4 construct: not shown: Fc part (captured via anti-human IgG-Fc)
Procedure: (§2) Affinity of the 16 humanized scFvs (derived from 5 rabbit monoclonal antibodies) to human IL-4R was determined by SPR analysis on a T200 device (Biacore, GE Healthcare). Human IL-4R-Fc was captured via an anti-human IgG-Fc coupled to a carboxylmethylated dextran surface and the scFvs were injected as analyte. After each analyte injection cycle the sensor chip was regenerated and new antigen was captured. The scFvs were measured using a dose response multi-cycle kinetic assay with seven analyte concentrations ranging from 0.12 to 90 nM diluted in running buffer. Obtained sensorgrams were fitted using a 1:1 binding model.
The scFvs were measured using a dose response multi-cycle kinetic assay with seven analyte concentrations ranging from 0.12 to 90 nM diluted in running buffer. Obtained sensorgrams were fitted using a 1:1 binding model.

Marmoset IL-4R ECD = target: T5, Marmoset IL-4R ECD (marmoset (Callithrix jacchus), UniProt Q0PIT7 26-232); test: SPR, direct setup: marmoset IL-4R ECD immobilized, scFv as analyte
T5 construct: also called marmoset monkey IL-4R
Procedure: (§3) Cross-reactivity to cynomolgus IL-4R was measured using the same setup as for the analysis of human IL-4R affinities, with the difference that cynomolgus IL-4R-Fc was captured instead of human IL-4R-Fc. To determine affinities for marmoset IL-4R, a direct setup was used since only extracellular domain (ECD) of marmoset IL-4R was available. Marmoset ECD was immobilized directly onto the sensor chip and a titration series of scFvs was injected as analyte. To allow for comparison between KD values obtained for cynomolgus and marmoset IL-4R, affinities to cynomolgus IL-4R ECD were also determined using a direct setup.

cynomolgus IL-4R-Fc [5] = target: T1, cynomolgus IL-4R-Fc; test: SPR, capture setup: cynomolgus IL-4R-Fc captured, scFv as analyte; remark: listed apart in the source
Procedure: as §2, §3

Biotinylated IL-4R [6] = target: T2, Biotinylated IL-4R; test: competitive ELISA: IL-4 coated, biotinylated IL-4R preincubated with scFv; remark: listed apart in the source
Text: as §1
Potency of humanized scFvs was further determined using a competitive ELISA.

Human IL-4R-Fc [7] = target: T4, Human IL-4R-Fc; test: SPR (Biacore T200), human IL-4R-Fc captured via anti-human IgG-Fc, scFv as analyte, 1:1 model
Procedure: as §2

IL-4R on HEK-Blue cells [8] = target: T3, IL-4R on HEK-Blue cells; test: cell-based or functional assay; remark: listed apart in the source
cynomolgus IL-4R ECD = target: T6, cynomolgus IL-4R ECD (cynomolgus monkey (Macaca fascicularis), UniProt A0A2K5V556 26-232); test: SPR, direct setup: cynomolgus IL-4R ECD immobilized, scFv as analyte
T6 construct: immobilized directly on the sensor chip; also called cynomolgus IL-4R (direct setup)
Procedure: as §3

Biotinylated IL-4R [9] = target: T2, Biotinylated IL-4R; test: competitive ELISA: human IL-4 coated on the plate, biotinylated IL-4R preincubated with the antagonist, bound IL-4R detected with streptavidin-HRP; blocked ligand human IL-4
Biotinylated IL-4R [10] = target: T2, Biotinylated IL-4R; test: as above; remark: listed apart in the source
Biotinylated IL-4R [11] = target: T2, Biotinylated IL-4R; test: competitive ELISA: IL-4 coated, biotinylated IL-4R preincubated with antibody (plate of PRO1899)
Biotinylated IL-4R [12] = target: T2, Biotinylated IL-4R; test: competitive ELISA: human IL-4 coated on the plate, biotinylated IL-4R preincubated with the antagonist, bound IL-4R detected with streptavidin-HRP; blocked ligand human IL-4; remark: listed apart in the source
Biotinylated IL-4R [13] = target: T2, Biotinylated IL-4R; test: competitive ELISA: human IL-4 coated on the plate, biotinylated IL-4R preincubated with the antagonist, bound IL-4R detected with streptavidin-HRP; blocked ligand human IL-4 [continued) E]
Biotinylated IL-4R [14] = target: T2, Biotinylated IL-4R; test: competitive ELISA: human IL-4 coated on the plate, biotinylated IL-4R preincubated with the antagonist, bound IL-4R detected with streptavidin-HRP; blocked ligand human IL-4; remark: listed apart in the source
Biotinylated IL-4R [15] = target: T2, Biotinylated IL-4R; test: competitive ELISA: IL-4 coated, biotinylated IL-4R preincubated with antibody (plate of PRO1898)

T5 sequence (Q0PIT7 entry or part of it limits assumed): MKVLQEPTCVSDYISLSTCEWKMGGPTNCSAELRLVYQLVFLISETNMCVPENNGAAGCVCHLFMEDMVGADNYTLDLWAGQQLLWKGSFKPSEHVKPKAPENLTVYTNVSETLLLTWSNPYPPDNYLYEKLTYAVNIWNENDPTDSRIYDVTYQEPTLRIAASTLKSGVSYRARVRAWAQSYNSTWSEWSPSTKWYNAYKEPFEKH
T6 sequence (A0A2K5V556 entry or part of it limits assumed): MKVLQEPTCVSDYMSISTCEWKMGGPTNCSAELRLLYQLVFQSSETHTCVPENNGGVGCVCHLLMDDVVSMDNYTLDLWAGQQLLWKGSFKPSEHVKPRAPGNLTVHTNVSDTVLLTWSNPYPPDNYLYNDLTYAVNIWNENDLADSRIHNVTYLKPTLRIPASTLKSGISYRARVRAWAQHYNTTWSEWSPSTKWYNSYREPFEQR

B2: PRO1517 (scFv)
scFv: DIQMTQSPSSLSASVGDRVTITCQASEDIESYLAWYQQKPGKAPKLLIYRASTLAYGVPSRFSGSGSGTDFTLTISSLQPEDFATYYCLGSSYSTGSNIFGTGTKVTVLGGGGGSGGGGSGGGGSGGGGSEVQLVESGGGLVQPGGSLRLSCAASGFSSSSAHYMCWVRQAPGKGLEWIGCIYAGSRGSTYYASWAKGRFTISRDNSKNTVYLQMNSLRAEDTAVYYCARAAFVNRGVSWIWPYYFSLWGQGTLVTVSS
notes: humanized scFv (VL-linker-VH), CDR graft of rabbit clone 44-34-C10; also called 44-34-C10-sc01; 44-34-C10 sc01
- Kd (Marmoset IL-4R ECD): 0.392 nM
- koff (Marmoset IL-4R ECD): 0.00105 s⁻¹
- kon (Marmoset IL-4R ECD): 2.67e+06 M⁻¹ s⁻¹
- Kd (cynomolgus IL-4R-Fc [5]): 0.0946 nM
- koff (cynomolgus IL-4R-Fc [5]): 0.000182 s⁻¹
- kon (cynomolgus IL-4R-Fc [5]): 1.92e+06 M⁻¹ s⁻¹
- IC50 (Biotinylated IL-4R [6]): 0.54 ng/mL
- rel. IC50 (IC50, dupilumab/IC50, test sample) (Biotinylated IL-4R [6]): 3.46 ratio
- Kd (Human IL-4R-Fc [7]): 0.0055 nM
- koff (Human IL-4R-Fc [7]): 1.95e-05 s⁻¹
- kon (Human IL-4R-Fc [7]): 3.55e+06 M⁻¹ s⁻¹
- IC50, neutralization of hIL-4-induced signaling in reporter gene assay (IL-4R on HEK-Blue cells [8]): 1.44 ng/mL
- IC50, neutralization of hIL-13-induced signaling in reporter gene assay (IL-4R on HEK-Blue cells [8]): 1.83 ng/mL
- rel. IC50 (IC50, dupilumab/IC50, test sample), hIL-4-induced signaling (IL-4R on HEK-Blue cells [8]): 0.39 ratio
- rel. IC50 (IC50, dupilumab/IC50, test sample), hIL-13-induced signaling (IL-4R on HEK-Blue cells [8]): 0.57 ratio
- Kd (cynomolgus IL-4R ECD): 0.681 nM
- koff (cynomolgus IL-4R ECD): 0.000404 s⁻¹
- kon (cynomolgus IL-4R ECD): 594000 M⁻¹ s⁻¹

B3: PRO1898 (scFv)
scFv: B2 scFv with S14R, T69R
notes: optimized variant of PRO1517 (VL S14R, T87R, AHo numbering); scFv VL-linker-VH; also called 44-34-C10-sc08
- Kd (cynomolgus IL-4R-Fc [1]): 0.0908 nM
- koff (cynomolgus IL-4R-Fc [1]): 0.000109 s⁻¹
- kon (cynomolgus IL-4R-Fc [1]): 1.2e+06 M⁻¹ s⁻¹
- IC50 (Biotinylated IL-4R [2]): 3.41 ng/mL
- rel. IC50 (IC50, dupilumab/IC50, test sample) (Biotinylated IL-4R [2]): 1.95 ratio
- IC50, neutralization of hIL-4 induced signaling in reporter gene assay (IL-4R on HEK-Blue cells [3]): 1 ng/mL
- IC50, neutralization of hIL-13 induced signaling in reporter gene assay (IL-4R on HEK-Blue cells [3]): 1.15 ng/mL
- rel. IC50 (IC50, dupilumab/IC50, test sample), hIL-4 induced signaling (IL-4R on HEK-Blue cells [3]): 1.15 ratio
- rel. IC50 (IC50, dupilumab/IC50, test sample), hIL-13 induced signaling (IL-4R on HEK-Blue cells [3]): 0.87 ratio
- Kd (Human IL-4R-Fc [4]): 0.00791 nM
- koff (Human IL-4R-Fc [4]): 1.7e-05 s⁻¹
- kon (Human IL-4R-Fc [4]): 2.15e+06 M⁻¹ s⁻¹

Continued, values first:

- Kd (cynomolgus IL-4R-Fc [1]): 0.012 nM
- koff (cynomolgus IL-4R-Fc [1]): 0.00014 s⁻¹
- kon (cynomolgus IL-4R-Fc [1]): 1.1e+07 M⁻¹ s⁻¹
- IC50 (Biotinylated IL-4R [2]): 2.98 ng/mL
- rel. IC50 (IC50, dupilumab/IC50, test sample) (Biotinylated IL-4R [2]): 2.07 ratio
- IC50, neutralization of hIL-4 induced signaling in reporter gene assay (IL-4R on HEK-Blue cells [3]): 0.71 ng/mL
- IC50, neutralization of hIL-13 induced signaling in reporter gene assay (IL-4R on HEK-Blue cells [3]): 0.56 ng/mL
- rel. IC50 (IC50, dupilumab/IC50, test sample), hIL-4 induced signaling (IL-4R on HEK-Blue cells [3]): 1.61 ratio
- rel. IC50 (IC50, dupilumab/IC50, test sample), hIL-13 induced signaling (IL-4R on HEK-Blue cells [3]): 1.8 ratio
- Kd (Human IL-4R-Fc [4]): 0.00692 nM
- koff (Human IL-4R-Fc [4]): 2.04e-05 s⁻¹
- kon (Human IL-4R-Fc [4]): 2.95e+06 M⁻¹ s⁻¹
B1: PRO1899 (scFv)
scFv: DIQMTQSPSSLSASVGDRVTITCQASEDIESYLAWYQQKPGKAPKLLIYRASTLAYGVPSRFSGSGSGTDFTLTISSLQPEDFATYYCLGSSYSTGSNIFGTGTKVTVLGGGGGSGGGGSGGGGSGGGGSEVQLVESGGGRVQPGGSLRLSCAASGFSSSSAHYMCWVRQAPGKGLEWIGCIYAGSRGSTYYASWAKGRFTISKASSTTVYLQMNSLRAEDTATYYCARAAFVNRGVSWIWPYYFSLWGQGTQVTVSS
notes: optimized variant of PRO1517 (VH L12R, V103T, L144Q and RDNSKN changed to KASST, AHo 82-87); scFv VL-linker-VH; also called 44-34-C10-sc09

- Kd (Marmoset IL-4R ECD): 0.787 nM
- koff (Marmoset IL-4R ECD): 0.00254 s⁻¹
- kon (Marmoset IL-4R ECD): 3.23e+06 M⁻¹ s⁻¹
- Kd (cynomolgus IL-4R-Fc [5]): 0.165 nM
- koff (cynomolgus IL-4R-Fc [5]): 0.000264 s⁻¹
- kon (cynomolgus IL-4R-Fc [5]): 1.6e+06 M⁻¹ s⁻¹
- IC50 (Biotinylated IL-4R [6]): 1.92 ng/mL
- rel. IC50 (IC50, dupilumab/IC50, test sample) (Biotinylated IL-4R [6]): 0.98 ratio
- Kd (Human IL-4R-Fc [7]): 0.0199 nM
- koff (Human IL-4R-Fc [7]): 5.42e-05 s⁻¹
- kon (Human IL-4R-Fc [7]): 2.72e+06 M⁻¹ s⁻¹
- IC50, neutralization of hIL-4-induced signaling in reporter gene assay (IL-4R on HEK-Blue cells [8]): 1.15 ng/mL
- IC50, neutralization of hIL-13-induced signaling in reporter gene assay (IL-4R on HEK-Blue cells [8]): 2.3 ng/mL
- rel. IC50 (IC50, dupilumab/IC50, test sample), hIL-4-induced signaling (IL-4R on HEK-Blue cells [8]): 1.02 ratio
- rel. IC50 (IC50, dupilumab/IC50, test sample), hIL-13-induced signaling (IL-4R on HEK-Blue cells [8]): 0.99 ratio
- Kd (cynomolgus IL-4R ECD): 0.376 nM
- koff (cynomolgus IL-4R ECD): 0.000238 s⁻¹
- kon (cynomolgus IL-4R ECD): 634000 M⁻¹ s⁻¹
B4: PRO1535 (scFv)
scFv: B2 scFv with A43P, V132S, G180A, R204K, Y227F
notes: humanized scFv (VL-linker-VH), Full graft of rabbit clone 44-34-C10; also called 44-34-C10-sc04; 44-34-C10 sc04

- IC50 (read off the curve) (Biotinylated IL-4R [9]): ~3 ng/mL
- IC50 (read off the curve) (Biotinylated IL-4R [10]): ~2 ng/mL
- IC50 (Biotinylated IL-4R [11]): 6.18 ng/mL
- rel. IC50 (IC50, dupilumab/IC50, test sample) (Biotinylated IL-4R [11]): 1 ratio
- IC50 (read off the curve) (Biotinylated IL-4R [12]): ~2 ng/mL
- IC50 (read off the curve) (Biotinylated IL-4R [13]): ~2 ng/mL
- IC50, neutralization of hIL-4 induced signaling in reporter gene assay (IL-4R on HEK-Blue cells [3]): 1.15 ng/mL
- IC50, neutralization of hIL-13 induced signaling in reporter gene assay (IL-4R on HEK-Blue cells [3]): 1 ng/mL
- rel. IC50 (IC50, dupilumab/IC50, test sample), hIL-4 induced signaling (IL-4R on HEK-Blue cells [3]): 1 ratio
- rel. IC50 (IC50, dupilumab/IC50, test sample), hIL-13 induced signaling (IL-4R on HEK-Blue cells [3]): 1 ratio
- IC50 (read off the curve) (Biotinylated IL-4R [14]): ~2 ng/mL
- IC50 (Biotinylated IL-4R [15]): 6.78 ng/mL
- rel. IC50 (IC50, dupilumab/IC50, test sample) (Biotinylated IL-4R [15]): 1 ratio
B5: dupilumab (antibody, V domains shown)
VH: EVQLVESGGGLEQPGGSLRLSCAGSGFTFRDYAMTWVRQAPGKGLEWVSSISGSGGNTYYADSVKGRFTISRDNSKNTLYLQMNSLRAEDTAVYYCAKDRLSITIRPRYYGLDVWGQGTTVTVSS
VL: DIVMTQSPLSLPVTPGEPASISCRSSQSLLYSIGYNYLDWYLQKSGQSPQLLIYLGSNRASGVPDRFSGSGSGTDFTLKISRVEAEDVGFYYCMQALQTPYTFGQGTKLEIKR
